In IntAct's records for PubMed 24132237:

Biological target: wasf2_human WASF2 (UniProt Q9Y6W5)

Substance: Ras-related C3 botulinum toxin substrate 1 (Homo sapiens) (from UniProt P63000-1) Q61L
- effect of a mutation on the interaction: increasing interaction strength
